In US20180208648A1 (SCHOLAR ROCK, published 2018):

T1: murine proGDF11 (mouse, UniProt Q9Z1W4 25-405, biotinylated, site not stated)
T1 sequence: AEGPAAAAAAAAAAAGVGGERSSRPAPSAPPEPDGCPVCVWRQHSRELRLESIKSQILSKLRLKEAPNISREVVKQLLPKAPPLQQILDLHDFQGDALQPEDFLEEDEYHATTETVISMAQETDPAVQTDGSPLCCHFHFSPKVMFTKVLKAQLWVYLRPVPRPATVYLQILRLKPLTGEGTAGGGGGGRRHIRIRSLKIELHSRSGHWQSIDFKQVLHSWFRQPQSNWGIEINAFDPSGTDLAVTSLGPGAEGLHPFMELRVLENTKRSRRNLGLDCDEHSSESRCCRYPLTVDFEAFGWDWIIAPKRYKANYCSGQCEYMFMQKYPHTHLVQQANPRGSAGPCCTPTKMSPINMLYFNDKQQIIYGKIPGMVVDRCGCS

T2: human proGDF11 (human, UniProt O95390 25-407, biotinylated (NHS-PEG4-Biotin), site not stated)
T2 sequence: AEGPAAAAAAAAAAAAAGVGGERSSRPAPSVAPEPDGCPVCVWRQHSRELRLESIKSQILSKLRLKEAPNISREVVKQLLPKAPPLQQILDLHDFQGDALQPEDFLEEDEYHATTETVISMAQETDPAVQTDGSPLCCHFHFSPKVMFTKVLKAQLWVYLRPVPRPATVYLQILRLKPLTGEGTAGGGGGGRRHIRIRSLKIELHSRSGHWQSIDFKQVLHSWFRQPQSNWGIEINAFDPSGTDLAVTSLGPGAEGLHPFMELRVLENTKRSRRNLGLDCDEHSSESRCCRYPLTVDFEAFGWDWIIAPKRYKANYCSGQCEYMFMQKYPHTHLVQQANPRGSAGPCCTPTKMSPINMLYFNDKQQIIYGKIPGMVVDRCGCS

T3: human mature GDF11 (human, UniProt O95390 299-407, biotinylated, site not stated)
T3 construct: Growth factor domain; also called GDF11 mature growth factor
T3 sequence: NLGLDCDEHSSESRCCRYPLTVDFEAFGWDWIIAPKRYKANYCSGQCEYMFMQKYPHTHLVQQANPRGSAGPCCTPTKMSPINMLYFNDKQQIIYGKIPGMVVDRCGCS

T4: human latent GDF11 (human, UniProt O95390 25-407, biotinylated, site not stated)
T4 construct: also called hu latent GDF11
T4 sequence: T2 sequence

T5: human proActivin A (human, UniProt P08476 21-426, biotinylated (immobilized on streptavidin biosensors), site not stated)
T5 construct: also called human Activin A; Inhibin-beta A pro-protein
T5 sequence: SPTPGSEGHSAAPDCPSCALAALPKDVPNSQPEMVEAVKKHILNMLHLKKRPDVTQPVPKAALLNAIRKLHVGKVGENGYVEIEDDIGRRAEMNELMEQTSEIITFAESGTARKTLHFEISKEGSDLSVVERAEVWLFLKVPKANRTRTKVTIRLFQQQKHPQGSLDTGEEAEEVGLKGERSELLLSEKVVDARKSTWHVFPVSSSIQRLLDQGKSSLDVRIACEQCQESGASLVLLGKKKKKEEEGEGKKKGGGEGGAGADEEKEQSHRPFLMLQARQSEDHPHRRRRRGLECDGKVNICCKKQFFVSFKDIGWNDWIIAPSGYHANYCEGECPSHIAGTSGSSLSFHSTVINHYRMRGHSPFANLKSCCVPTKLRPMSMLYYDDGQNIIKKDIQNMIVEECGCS

T6: human proGDF8 (human, UniProt O14793 24-375, biotinylated, site not stated)
T6 construct: also called hu proGDF8; human proMyostatin
T6 sequence: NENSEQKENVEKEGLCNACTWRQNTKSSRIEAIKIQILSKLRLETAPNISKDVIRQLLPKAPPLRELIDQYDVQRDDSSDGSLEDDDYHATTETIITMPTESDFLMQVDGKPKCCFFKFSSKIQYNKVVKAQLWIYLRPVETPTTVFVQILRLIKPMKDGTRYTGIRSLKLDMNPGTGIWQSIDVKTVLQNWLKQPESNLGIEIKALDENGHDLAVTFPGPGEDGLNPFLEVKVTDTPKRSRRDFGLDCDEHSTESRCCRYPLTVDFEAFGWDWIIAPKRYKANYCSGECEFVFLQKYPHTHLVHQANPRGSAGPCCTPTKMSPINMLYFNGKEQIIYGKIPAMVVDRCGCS

T7: human prodomain GDF11 ARM8 (human, biotinylated, site not stated)
T7 construct: GDF11 prodomain having the GDF8 arm domain; also called human GDF11 ARM8 prodomain
T7 chain: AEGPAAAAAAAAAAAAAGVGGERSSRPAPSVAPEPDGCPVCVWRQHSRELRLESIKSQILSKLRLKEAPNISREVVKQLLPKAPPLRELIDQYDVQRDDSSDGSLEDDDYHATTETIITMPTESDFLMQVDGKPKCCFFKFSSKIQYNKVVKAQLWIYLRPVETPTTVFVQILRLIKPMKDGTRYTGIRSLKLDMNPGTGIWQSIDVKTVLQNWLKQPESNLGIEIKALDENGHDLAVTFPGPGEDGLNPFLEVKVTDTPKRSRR

T8: human proGDF11 ARM8 (human, biotinylated, site not stated)
T8 construct: GDF11 having the GDF8 arm domain
T8 chain: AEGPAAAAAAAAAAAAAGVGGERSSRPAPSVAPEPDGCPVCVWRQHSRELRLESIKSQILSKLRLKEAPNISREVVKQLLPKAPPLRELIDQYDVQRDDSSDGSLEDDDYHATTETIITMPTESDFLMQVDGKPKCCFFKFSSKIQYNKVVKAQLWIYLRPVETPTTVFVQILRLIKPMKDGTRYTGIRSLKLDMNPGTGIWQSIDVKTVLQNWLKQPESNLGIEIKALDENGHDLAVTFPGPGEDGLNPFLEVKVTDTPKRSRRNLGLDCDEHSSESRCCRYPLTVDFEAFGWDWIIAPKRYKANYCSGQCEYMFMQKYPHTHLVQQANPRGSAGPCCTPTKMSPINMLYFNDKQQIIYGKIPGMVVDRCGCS

B1: GDF11 Inh-1 (antibody, V domains shown)
VH: EVQLLESRGGLVQPGRSLRLSCAASGFTFDDYAMHWVRQAPGKGLEWVSGISWNSGSIGYADSVKGRFTISRDNTKNSLYLQMNSLRAEDTGVYYCAREVTGDLDYWGQGTLVTVSS
VL: EIVMTQSPGTLSLSPGERATLSCRASQFLSSTYLAWYQQRPGQAPRLLIYSASNRATGVPDRFSGSGSGTDFTLKISRVEAEDVGVYYCMQATHWPYTFGQGTKLEIKR
notes: also called Clone GDF11 Inh-1
B2: GDF11 Inh-7 (antibody, V domains shown)
VH: EVQLVQSGGGLVQPGGSLRLSCAASGFTFSSYSMNWVRQAPGKGLEWVSYISSSSSTIYYADSVKGRFTISRDNAKNSLYLQMNSLRAEDTAVYYCARDGIYYDSSGYYDLFDYWGQGTLVTVSS
VL: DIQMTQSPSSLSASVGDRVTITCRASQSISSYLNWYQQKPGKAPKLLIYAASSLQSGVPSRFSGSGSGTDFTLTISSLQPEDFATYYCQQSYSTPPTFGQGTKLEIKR
notes: also called Clone GDF11 Inh-7
B3: GDF11 Inh-5 (antibody, V domains shown)
VH: EVQLVQSGAEVKKPGASVKVSCKASGYTFTGYYIYWVRQAPGQGLEWMGWIRPNSGDTNYAQKFQDRLTMTRDTSISTAYMELSRLRSDDTAVYYCAGNYDILTGYQAPLGYWGQGALVTVSS
VL: DIVLTQSPATLSVSPGERATLSCRASQRVISNYLAWYQQKPGQAPRLLIYGASSRATGIPDRFSGSGSGTDFTLSISRLEPEDFAVYYCQHYGPFGGGTKVEIKR
notes: also called Clone GDF11 Inh-5
B4: GDF11 Inh-6 (antibody, V domains shown)
VH: QVQLQESGPGLVKPSETLSLTCTVSGGSISSSSYYWGWVRQPPGKGLEWIGEIYHSGSTNYNPSLKSRVTISVDTSKNQFSLKLSSVTAADTAVYYCARVGTSWEYYFDYWGQGTLVTVSS
VL: DIQMTQSPASLSASVGDRVTITCRTSQHIINYLNWYQQRPGKAPNLLIYKASTLQSGVPSRFSGSGSGTHFTLTISSLQPEDFATYYCQQYQSYPITFGQGTRLEIKR
notes: also called Clone GDF11 Inh-6
B5: GDF11 Inh-3 (antibody, V domains shown)
VH: QVQLVQSGGGVVQPGRSLRLSCAASGFTFSSYAMHWVRQAPGKGLEWVAVISYDGSNEYYADSVKGRFTISRDNSKNTLYLQMNSLRAEDTAVYYCAKDFWSGYPQYNWFDPWGQGTLVTVSS
VL: EIVMTQSPATLSLSAGERATLSCRASQSVSNYLAWYQQKPGQAPRLLIYDASNRATGIPARFSGSGSGTDFTLTISSLEPEDFAVYYCQQYGSAPLTFGGGTNVEIKR
notes: also called Clone GDF11 Inh-3

Assays:
murine proGDF11 [1] = target: T1, murine proGDF11; experiment: cell-based or functional assay
human proGDF11 [2] = target: T2, human proGDF11; experiment: cell-based or functional assay
murine proGDF11 [3] = target: T1, murine proGDF11; experiment: BLI (ForteBio Octet)
human proGDF11 [4] = target: T2, human proGDF11; experiment: BLI (ForteBio Octet)
human mature GDF11 = target: T3, human mature GDF11; experiment: ELISA, biotinylated antigen on neutravidin plate
Source text: (§1) Candidate clones were converted to human IgG1 format. Full-length IgG antibodies were further characterized by ELISA for binding to the human and murine pro- and latent-forms of myostatin and GDF11. Antibodies were also screened for binding to the Myostatin prodomain (SEQ ID NO: 85), proTGFDβ1 (human and murine), the mature growth factor of Myostatin (SEQ ID NO: 89), the GDF11 mature growth factor (SEQ ID NO: 90), and proActivin A (SEQ ID NO: 84). Chimeric constructs which swapped portions of the prodomains of Myostatin and GDF11 were designed and produced. For example proGDF11 arm8 (SEQ ID NO: 112) refers to GDF11 having the GDF8 arm domain, and prodomain GDF11 arm8 (SEQ ID NO: 114) refers to the GDF11 prodomain having the GDF8 arm domain. These chimeric proteins were assayed for interaction with screening antibodies by ELISA and allowed for the assessment of binding of antibodies to the ARM or straight jacket portions of the GDF11 prodomain complex. Antibodies were selected based on their cross-reactivity with pro- and latent human and murine GDF11, with no interactions with GDF8, Activin, or TGFβ proteins. Activin A is a homodimer of inhibin-beta A subunits. For example, Inhibin-beta A can heterodimerize with other proteins to produce different Activin proteins.
(§2) Enzyme-linked immunosorbent assay (ELISA) analysis is carried out to assess antibody binding. 96-well ELISA assay plates are coated with neutravidin, a deglycosylated version of streptavidin with a more neutral pH. Target proteins are expressed with or without histidine (His) tags and subjected to biotinylation. Biotinylated target proteins are incubated with neutravidin-coated ELISA assay plates for two hours at room temperature and unbound proteins are removed by washing three times with wash buffer (either 25 mM Tris, 150 mM NaCl, 0.05% TWEEN®-20, or 20 mM Hepes pH 7.5, 500 mM NaCl, 0.05% TWEEN®-20). Primary antibodies being tested are added to each well and allowed to incubate at room temperature for 1 hour or more. Unbound antibody is then removed by washing three times with wash buffer. Secondary antibodies capable of binding to primary antibodies being tested and conjugated with detectable labels are then incubated in each well for 30 minutes at room temperature. Unbound secondary antibodies are removed by washing three times with wash buffer.

human proGDF11 [5] = target: T2, human proGDF11; experiment: cell-based or functional assay; remark: listed apart in the source
human proGDF11 [6] = target: T2, human proGDF11; experiment: cell-based or functional assay; remark: listed apart in the source
human latent GDF11 = target: T4, human latent GDF11; experiment: BLI (ForteBio Octet)
human proActivin A = target: T5, human proActivin A; experiment: BLI (ForteBio Octet QKe), antigen on streptavidin biosensor, antibody in solution
human proGDF8 = target: T6, human proGDF8; experiment: ELISA, biotinylated antigen on neutravidin plate
Source text: as §1, §2

[7] = target: T7, human prodomain GDF11 ARM8; experiment: ELISA, biotinylated antigen on neutravidin plate
Source text: as §1, §2

human proGDF11 ARM8 = target: T8, human proGDF11 ARM8; experiment: ELISA, biotinylated antigen on neutravidin plate
Source text: as §1, §2

Binder	Murine proGDF11 % inhibition (proGDF11 activation assay, CAGA luciferase reporter in 293T cells) (murine proGDF11 [1]) [%]	Human proGDF11 % Inhibition (proGDF11 activation assay, CAGA luciferase reporter in 293T cells) (human proGDF11 [2]) [%]	Kd (murine proGDF11 [3]) [nM]	Kd (human proGDF11 [4]) [nM]	binding result (human mature GDF11)	EC50, proGDF11 activation assay at 50 nM proGDF11 (human proGDF11 [5]) [nM]	EC50 (inhibition of proGDF11 activation; CAGA luciferase reporter in 293T cells after overnight proteolysis) (human proGDF11 [6]) [nM]	Kd (human latent GDF11) [nM]	binding result (human proActivin A)	binding result (human proGDF8)	binding result [7]	binding result (human proGDF11 ARM8)
B1	80	91	0.848	0.49	no binding	87.1	–	–	–	–	–	–
B2	53	74	–	2.12	no binding	–	–	–	–	–	–	–
B3	90	96	–	< 0.001	–	30.1	~30.3	< 0.001	no binding (tested: 50 µg/mL)	–	–	–
B4	63	77	–	0.75	–	–	–	–	–	no binding	no binding	–
B5	88	87	0.937	0.71	no binding	–	–	–	–	no binding	no binding	no binding
